The source of these data is patent US5227469A, “Platelet aggregation inhibitors from the leech” (Genentech, Inc., priority 1990, dated 1993).

Read-outs that look alike come from different tables or passages of the source. No end group written: not given here.

The target of series [1] is T1, GP IIb IIIa (Homo sapiens, UniProt P05106+P08514).
T1 construct: GP IIb IIIa was purified from outdated human platelets as previously described; from tissue; host or cells: outdated human platelets
The series is described as follows: Fg/GP IIb IIIa solid phase ELISA (inhibition of GP IIb IIIa binding to immobilized fibrinogen). The following applies: for activity in GP IIb IIIa /Fg ELISA compared with decorsin purified from whole leech homogenate: specific activity (IC50); for half maximal dilution / total units / specific activity (U/mg): Table III; for half maximal dilution: dilution giving half maximal response in ELISA, fractions from 310 g P. ornata; for total units: half maximal dilution multiplied by total volume in ml; for specific activity (U/mg): total units per mg total protein. As to the method:
The Fg/GP IIb IIIa ELISA was performed by a modification of the method of Nachman and Leung (Nachman, R. L. et al. (1982) J. Clin. Invest. 69, 263-269) according to the following protocol, with washes of phosphate buffered saline containing 0.01% Tween 20 between each step:
Microtiter plates were coated with purified human fibrinogen (10 μg/ml), washed, and then blocked with TACTS, 0.5% BSA. The plates were washed and samples to be evaluated were added, followed immediately by addition of purified GP IIb IIIa (40 μg/ml) in TACTS, 0.5% BSA (Calbiochem). After a 1 hr incubation, the plate was washed and AP3 (1 μg/ml) was added.
Following a 1 hr incubation and another wash, goat anti-mouse IgG conjugated to horseradish peroxidase was added. A final wash was performed, and developing reagent buffer (0.66 mg/ml o-phenylenediamine dihydrochloride, 0.012% H2 O2, 22 mM citrate, 50 mM phosphate, pH 5.0) added; plates were incubated until color developed.
The reaction was stopped with 1N H2 SO4 and the absorbance at 492 nm measured. A four parameter fit (Marquardt, D. W. (1963) J. Soc. Indust. Appl. Math 11, 431-441) was used to estimate the half maximal inhibition concentration.

Series [2] has as its system human platelet rich plasma (PRP). The method, then:
The Fg/GP IIb IIIa ELISA was performed as previously described (Dennis, M. S., Henzel, W. J., Pitti, R. M., Lipari, M. T., Napier, M. A., Deisher, T. A., Bunting S. and Lazarus, R. A. (1990) Proc. Natl. Acad. Sci. USA, 87, 2471-2475; and Seymour, J. L., Henzel, W. J., Nevins, B., Stults, J. T., and Lazarus, R. A. (1990) J. Biol. Chem. 265, 10143-10147).Platelet aggregation assays were carried out in human platelet rich plasma (PRP) as reported earlier (Dennis, M. S., Henzel, W. J., Pitti, R. M., Lipari, M. T., Napier, M. A., Deisher, T. A., Bunting, S. and Lazarus, R. A. (1990) Proc. Natl. Acad. Sci. USA, 87, 2471-2475; and Seymour, J. L., Henzel, W. J., nevins, B., Stults, J. T., and Lazarus, R. A. (1990) J. Biol. Chem. 265, 10143-10147).
Platelet aggregation assays were performed in PRP as follows:
50 ml whole human blood (9 parts) was drawn on 3.8% Na citrate (1 part) from a donor who had not taken any aspirin or related medication for at least two weeks. Blood was centrifuged at 160×g for 10 minutes at 22° C., allowed to stand for five minutes, and the PRP was decanted. Platelet poor plasma (PPP) was prepared from the remaining blood by centrifugation at 2000×g for 25 minutes at 22° C. PRP platelet count was measured on a Baker 9000 hematology analyzer and diluted to about 300,000 platelets/μL using PPP.
Light transmittance was recorded after the addition of ADP (8 μM), which initiated platelet aggregation. The inhibition of platelet aggregation was measured at the maximum aggregation response.

In series [3] the target is T1, GP IIb IIIa. The series is described as follows: Binding to immobilized GP IIb IIIa affinity resin, elution with EDTA. The following applies: eluted by EDTA. The method, then: Immediately before coupling, approximately 10 ml Affi-Prep 10 resin was washed with 300 ml ice cold 50 mM sodium acetate, pH 4.5 in a coarse sintered glass funnel. After removing excess buffer, approximately 4 ml washed resin was transferred to a 15 ml conical tube containing 8 mg purified GP IIb IIIa which had been previously dialyzed into 0.1M sodium bicarbonate, 2 mM CaCl2, pH 8.0.
The coupling was carried out on a rocking platform at room temperature for 2 hours, and then overnight at 4° C. Excess reactive groups on the resin were blocked by incubation with 0.1M ethanolamine, 2 mM CaCl2, pH 9.0 for 1 hour at room temperature. The resin was then transferred to a sintered glass funnel, and washed in an alternating fashion with 20 ml aliquots of 0.1M sodium acetate, pH 4.5, and 0.1M Tris, pH 7.5, each containing 0.5M NaCl and 2 mM CaCl2, to remove any non-covalently bound material. A total of approximately 300 ml of each buffer was used in this cycle washing. Finally, the coupled GP IIb IIIa resin was washed with 100 ml 50 mM Tris, pH 7.5 containing 2 mM CaCl2 and stored at 4° C. prior to use.
The affinity column (ca. 4 ml of resin) was equilibrated in 50 mM Tris, pH 7.5 containing 2 mM CaCl2. The neutralized TFA pool was loaded onto the column at a flow rate of 0.5 ml/min and 25 ml fractions were collected. […]

The target of series [4] is glycoprotein IIb IIIa (GP IIb IIIa), purified from outdated human platelets (human) (UniProt P08514). The experiment in a line: Fg/GP IIb-IIIa solid phase ELISA.
The target is the same in series [5]. The experiment in a line: Fg/GP IIb IIIa ELISA units per mg protein.
Series [6] has the same target. The series is described as follows: Fg/GP IIb IIIa ELISA, dilution of the 0.018 mg/ml fraction giving a half maximal response.
For series [7] the target is unchanged. The experiment in a line: Fg/GP IIb IIIa ELISA, dilution of the 0.024 mg/ml fraction giving a half maximal response.
The target is the same in series [8]. The series is described as follows: Fg/GP IIb IIIa ELISA, dilution of the 0.113 mg/ml fraction giving a half maximal response.
For series [9] the target is unchanged. The series is described as follows: Fg/GP IIb IIIa ELISA, dilution of the 0.020 mg/ml fraction giving a half maximal response.
Series [10] addresses T2, GP IIb IIIa on human platelets (platelet rich plasma) (human, UniProt P08514). The experiment in a line: cell-based or functional assay.
The target in series [11] is glycoprotein IIb IIIa (GP IIb IIIa), purified from outdated human platelets (human) (UniProt P08514). The experiment in a line: Fg/GP IIb IIIa solid phase ELISA, inhibition of GP IIb IIIa binding to immobilized fibrinogen.
The target in series [12] is T2, GP IIb IIIa on human platelets …. The series is described as follows: cell-based or functional assay. The source holds these as a separate data set.
[13] abbreviates: four parameter fit, read-out: IC50 in GP IIb IIIa /Fg ELISA.
Setting [14] is: Table VI, n in parenthesis, read-out: IC50 (nM) Fg/GP IIb-IIIa solid phase ELISA.

In the case of “APRLPQCQGDDQEKCLCNKDECPPGQCRFPRGDADPYCE [decorsin, 39-amino acid RGD protein from the leech Macrobdella decora, GP IIb IIIa antagonist]”, the IC50 with GP IIb IIIa [1] (setting [13]) is approximately 1.5 nM. The “potency relative to pentapeptide GRGDV in GP IIb IIIa /Fg ELISA” value with GP IIb IIIa [1] (ratio of IC50 values) is “about 27 times”. The “activity in GP IIb IIIa /Fg ELISA compared with decorsin purified from whole leech homogenate” value with GP IIb IIIa [1] is “identical”; in the series with GP IIb IIIa [1] (listed as synthetic native decorsin), “essentially identical”. Moreover, the “activity in platelet aggregation assay compared with native decorsin” value in [2] was “essentially identical”. Besides, the “binding to GP IIb IIIa receptor (words)” value is on record as “bound” with GP IIb IIIa [3] and “bind” with GP IIb IIIa [3] (listed as Decorsin).
Regarding “GRGDV [GRGDV, reference compound] [listing 1 of 2 here]”, the IC50 on GP IIb IIIa [1] (setting [14]) was 47.5 ± 6.4 nM; on GP IIb IIIa [1] (setting [13]), approximately 40 nM.
With “GRGDV [GRGDV, reference compound] [listing 2 of 2 here]”, the IC50 in series [2] (read-out: IC50 in platelet aggregation assay, ADP (8 μM) induced, human PRP) is approximately 75000 nM.
For “IPQCRDVKESGQPNDKCRCNGKPCTVGKCTIARGDDNDKCT [ornatin A2, ornatin isoform isolated from P. ornata]”, the “activity of C18 rp HPLC peaks in Fg/GP IIb IIIa ELISA” value in the series with GP IIb IIIa [1] (FIG. 8 inset, rechromatography of ornatin A) is “active”. In the series with GP IIb IIIa [1], the half maximal dilution is reported as 809, the total units stood at 405 and the “specific activity (U/mg)” value stood at 44505 U/mg. Further, the IC50 with GP IIb IIIa [1] (setting [14]) was 5.1 nM.
“IYVRPTKDELLYCGEFRELGQPDKKCRC [ornatin D, ornatin isoform from P. ornata]”: in the series with GP IIb IIIa [1], the half maximal dilution worked out at 1032, the total units was 516 and the “specific activity (U/mg)” value is recorded as 49615 U/mg. For the same molecule, in the series with GP IIb IIIa [1] (setting [14]), the IC50 worked out at 3.2 ± 0.35 nM.
On the same counts, the results for “IYVRPTKDELLYCGEFRELGQPDKKCRCDGKPCTVGRCKFARGDADDKCTSA [ornatin C, ornatin isoform isolated from P. ornata]” are 4422, 2211, 39060 U/mg and 4.9 ± 0.5 nM.
On the same counts, the results for “IYVRPTKDELLYCGEFRELGQPDKKCRCDGKPCTVGRCNFARGDNDDKCI [ornatin E, ornatin isoform isolated from P. ornata]” are 3610, 1805, 42370 U/mg and 4.5 ± 0.77 nM.
The corresponding values for “IYVRPTNDELNYCGDFRELGQPDKKCRCDGKPCTVGRCKFARGDNDDKCISA [ornatin B, ornatin isoform isolated from P. ornata]” are 1215, 608, 50670 U/mg and 3.5 ± 0.25 nM.
With “N-3 decorsin: isoform which lacks the first three amino terminal residues of decorsin (LPQCQGDDQEKCLCNKDECPPGQCRFPRGDADPYCE)”, the IC50 in the series with GP IIb IIIa [1] (setting [13]) is approximately 1.5 nM. The “activity in platelet aggregation assay compared with native decorsin” value in series [2] was “Comparable activities”.
For the molecule kistrin [reference compound], the IC50 was determined as 4.6 ± 0.06 nM at GP IIb IIIa [1] (setting [14]) and 137 nM in series [2] (read-out: IC50 (nM) human platelet aggregation assay, Table VI, ADP activation, n in parenthesis).
With ornatin A2, the IC50 in series [4] worked out at 5.1 nM. Besides, the specific activity (U/mg) in series [5] came out at 44500 U/mg. The half maximal dilution in series [6] is 809.
Regarding ornatin B, the IC50 in series [4] is 3.5 nM. Besides, the specific activity (U/mg) in [5] worked out at 50700 U/mg. Also, in [7], the half maximal dilution is 1220.
Molecule ornatin C showed an IC50 in [4] of 4.9 nM. Further, in series [5], the specific activity (U/mg) was determined as 39100 U/mg. Also, the half maximal dilution in series [8] turned out to be 4420.
In series [4], ornatin D showed an IC50 of 3.2 nM. This molecule displayed a specific activity (U/mg) in [5] of 49600 U/mg. For the same molecule, the half maximal dilution in series [9] came out at 1030.

B1: GRGDV (peptide)
peptide: GRGDV
With B1, the “IC50, inhibition of ADP-induced platelet aggregation in human platelet rich plasma” value in [10] was approximately 75000 nM. In addition, the IC50 in [4] worked out at 47.5 nM; in series [11], 40 nM.

B2: ornatin E (other)
chain: IYVRPTKDELLYCGEFRELGQPDKKCRCDGKPCTVGRCNFARGDNDDKCI
Turning to B2, the “IC50 (nM), human platelet aggregation assay (ADP activation)” value (“IC50 (nM)” for short) in series [12] was 516 nM.

B3: ornatin C (other)
chain: IYVRPTKDELLYCGEFRELGQPDKKCRCDGKPCTVGRCKFARGDADDKCTSA
Turning to B3, in series [12], the “IC50 (nM)” value was 324 nM.

B4: decorsin (other)
chain: APRLPQCQGDDQEKCLCNKDECPPGQCRFPRGDADPYCE
Turning to B4, the “IC50, inhibition of ADP-induced platelet aggregation in human platelet rich plasma” value in [10] was approximately 300 nM. Further, the “IC50 (nM)” value in series [12] is 314 nM.
